Measurements from patent US20250171512A1.

Target: human FGFR1c together with human beta-Klotho (KLB), stably expressed on CHO Flp-In cells (human), P11362
Test: cell-based or functional assay

human FGFR1c together with human beta-Klotho (KLB), stably expressed on CHO Flp-In cells (human), P11362, sequence (P11362 22-822, chain 1 of 2): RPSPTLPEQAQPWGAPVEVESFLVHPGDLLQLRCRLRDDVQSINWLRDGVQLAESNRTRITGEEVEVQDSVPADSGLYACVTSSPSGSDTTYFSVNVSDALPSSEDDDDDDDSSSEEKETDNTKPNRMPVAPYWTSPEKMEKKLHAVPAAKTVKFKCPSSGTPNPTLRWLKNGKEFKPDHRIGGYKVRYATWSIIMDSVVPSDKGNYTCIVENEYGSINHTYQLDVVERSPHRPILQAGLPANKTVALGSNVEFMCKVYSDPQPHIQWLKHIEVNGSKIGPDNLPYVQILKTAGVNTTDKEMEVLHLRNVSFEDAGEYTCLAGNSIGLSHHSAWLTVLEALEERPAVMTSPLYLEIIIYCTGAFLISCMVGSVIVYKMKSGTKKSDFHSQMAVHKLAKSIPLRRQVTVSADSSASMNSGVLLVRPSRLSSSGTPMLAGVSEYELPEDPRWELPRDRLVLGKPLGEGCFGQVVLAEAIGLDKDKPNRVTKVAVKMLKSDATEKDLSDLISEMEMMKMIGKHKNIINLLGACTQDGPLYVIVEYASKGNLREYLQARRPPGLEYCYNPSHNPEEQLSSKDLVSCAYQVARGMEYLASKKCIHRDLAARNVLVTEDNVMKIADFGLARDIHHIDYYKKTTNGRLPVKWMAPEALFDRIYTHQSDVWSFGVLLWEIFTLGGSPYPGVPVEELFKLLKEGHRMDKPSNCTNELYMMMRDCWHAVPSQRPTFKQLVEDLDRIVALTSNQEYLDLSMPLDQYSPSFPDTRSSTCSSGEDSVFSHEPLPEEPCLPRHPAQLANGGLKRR
human FGFR1c together with human beta-Klotho (KLB), stably expressed on CHO Flp-In cells (human), P11362, sequence (Q86Z14 whole entry, chain 2 of 2, further chain): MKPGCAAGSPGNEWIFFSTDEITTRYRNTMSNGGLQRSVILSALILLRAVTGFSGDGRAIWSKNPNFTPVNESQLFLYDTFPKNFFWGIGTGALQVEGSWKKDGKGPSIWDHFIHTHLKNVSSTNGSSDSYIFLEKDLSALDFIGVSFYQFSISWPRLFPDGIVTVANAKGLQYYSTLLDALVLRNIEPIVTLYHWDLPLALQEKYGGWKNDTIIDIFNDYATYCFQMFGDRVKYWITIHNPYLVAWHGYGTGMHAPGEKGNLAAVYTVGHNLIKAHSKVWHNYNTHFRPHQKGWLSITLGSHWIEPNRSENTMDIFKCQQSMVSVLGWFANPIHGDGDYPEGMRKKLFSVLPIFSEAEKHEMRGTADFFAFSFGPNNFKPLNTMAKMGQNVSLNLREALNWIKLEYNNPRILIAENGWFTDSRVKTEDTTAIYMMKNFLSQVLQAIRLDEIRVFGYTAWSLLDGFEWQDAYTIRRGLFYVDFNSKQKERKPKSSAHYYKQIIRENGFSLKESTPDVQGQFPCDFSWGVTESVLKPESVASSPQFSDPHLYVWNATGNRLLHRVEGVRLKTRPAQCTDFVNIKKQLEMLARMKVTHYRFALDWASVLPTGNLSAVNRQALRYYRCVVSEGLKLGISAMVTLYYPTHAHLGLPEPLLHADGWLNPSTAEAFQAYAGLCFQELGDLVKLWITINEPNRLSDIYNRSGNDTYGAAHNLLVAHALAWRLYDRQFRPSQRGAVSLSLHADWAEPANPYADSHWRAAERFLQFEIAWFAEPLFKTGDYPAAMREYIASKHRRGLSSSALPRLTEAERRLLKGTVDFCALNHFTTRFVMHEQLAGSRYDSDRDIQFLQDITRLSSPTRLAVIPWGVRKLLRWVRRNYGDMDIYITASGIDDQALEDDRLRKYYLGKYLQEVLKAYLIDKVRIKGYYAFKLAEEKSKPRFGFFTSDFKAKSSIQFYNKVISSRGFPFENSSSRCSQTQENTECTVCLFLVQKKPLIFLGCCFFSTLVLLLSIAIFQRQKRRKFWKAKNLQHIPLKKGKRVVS

Row | Binder | pERK ICW EC50 [nmol/L] | pFGFR ICW EC50 [nmol/L] | pFGFR ICW Emax [%] | In-Cell Western EC50 [nM]
1 | FGF21 G202-R203 deleted (SEQ ID NO: 157), Q9NSA1 29-209 (ligand) GHPIPDSSPLLQFGGQVRQRYLYTDDAQQTEAHLEIREDGTVGGAADQSPESLLQLKALKPGVIQILGVKTSRFLCQRPDGALYGSLHFDPEACSFRELLLEDGYNVYQSEAHGLPLHLPGNKSPHRDPAPRGPARFLPLPGLPPAPPEPPGILAPQPPDVGSSDPLSMVGPSQSPSYAS | 1.63 |  |  | 
2 | FGF21 P152-H153 deleted (SEQ ID NO: 135), Q9NSA1 29-209 (ligand) GHPIPDSSPLLQFGGQVRQRYLYTDDAQQTEAHLEIREDGTVGGAADQSPESLLQLKALKPGVIQILGVKTSRFLCQRPDGALYGSLHFDPEACSFRELLLEDGYNVYQSEAHGLPLHLPGNKSRDPAPRGPARFLPLPGLPPAPPEPPGILAPQPPDVGSSDPLSMVGPSQGRSPSYAS | 0.21 |  |  | 
3 | FGF21, human (SEQ ID NO: 2), without N-terminal tag, Q9NSA1 29-209 (ligand) HPIPDSSPLLQFGGQVRQRYLYTDDAQQTEAHLEIREDGTVGGAADQSPESLLQLKALKPGVIQILGVKTSRFLCQRPDGALYGSLHFDPEACSFRELLLEDGYNVYQSEAHGLPLHLPGNKSPHRDPAPRGPARFLPLPGLPPAPPEPPGILAPQPPDVGSSDPLSMVGPSQGRSPSYAS | 0.17 | 4.49 | 146 | 
4 | FGF21 N149-A162 deleted and replaced by GSHSGS (SEQ ID NO: 138), Q9NSA1 29-209 (ligand) GHPIPDSSPLLQFGGQVRQRYLYTDDAQQTEAHLEIREDGTVGGAADQSPESLLQLKALKPGVIQILGVKTSRFLCQRPDGALYGSLHFDPEACSFRELLLEDGYNVYQSEAHGLPLHLPGGSHSGSRFLPLPGLPPAPPEPPGILAPQPPDVGSSDPLSMVGPSQGRSPSYAS | 0.19 |  |  | 
5 | FGF21 A162Y (SEQ ID NO: 151), Q9NSA1 29-209 (ligand) GHPIPDSSPLLQFGGQVRQRYLYTDDAQQTEAHLEIREDGTVGGAADQSPESLLQLKALKPGVIQILGVKTSRFLCQRPDGALYGSLHFDPEACSFRELLLEDGYNVYQSEAHGLPLHLPGNKSPHRDPAPRGPYRFLPLPGLPPAPPEPPGILAPQPPDVGSSDPLSMVGPSQGRSPSYAS | 0.08 |  |  | 
6 | FGF21 R154Q, D155L (SEQ ID NO: 130), Q9NSA1 29-209 (ligand) GHPIPDSSPLLQFGGQVRQRYLYTDDAQQTEAHLEIREDGTVGGAADQSPESLLQLKALKPGVIQILGVKTSRFLCQRPDGALYGSLHFDPEACSFRELLLEDGYNVYQSEAHGLPLHLPGNKSPHQLPAPRGPARFLPLPGLPPAPPEPPGILAPQPPDVGSSDPLSMVGPSQGRSPSYAS | 0.14 |  |  | 
7 | FGF21 D155P (SEQ ID NO: 127), Q9NSA1 29-209 (ligand) GHPIPDSSPLLQFGGQVRQRYLYTDDAQQTEAHLEIREDGTVGGAADQSPESLLQLKALKPGVIQILGVKTSRFLCQRPDGALYGSLHFDPEACSFRELLLEDGYNVYQSEAHGLPLHLPGNKSPHRPPAPRGPARFLPLPGLPPAPPEPPGILAPQPPDVGSSDPLSMVGPSQGRSPSYAS | 0.08 |  |  | 
8 | FGF21 D155L (SEQ ID NO: 124), Q9NSA1 29-209 (ligand) GHPIPDSSPLLQFGGQVRQRYLYTDDAQQTEAHLEIREDGTVGGAADQSPESLLQLKALKPGVIQILGVKTSRFLCQRPDGALYGSLHFDPEACSFRELLLEDGYNVYQSEAHGLPLHLPGNKSPHRLPAPRGPARFLPLPGLPPAPPEPPGILAPQPPDVGSSDPLSMVGPSQGRSPSYAS | 0.11 |  |  | 
9 | FGF21 R154Q, D155K (SEQ ID NO: 131), Q9NSA1 29-209 (ligand) GHPIPDSSPLLQFGGQVRQRYLYTDDAQQTEAHLEIREDGTVGGAADQSPESLLQLKALKPGVIQILGVKTSRFLCQRPDGALYGSLHFDPEACSFRELLLEDGYNVYQSEAHGLPLHLPGNKSPHQKPAPRGPARFLPLPGLPPAPPEPPGILAPQPPDVGSSDPLSMVGPSQGRSPSYAS | 0.39 |  |  | 
10 | FGF21 K150H, P152L (SEQ ID NO: 140), Q9NSA1 29-209 (ligand) GHPIPDSSPLLQFGGQVRQRYLYTDDAQQTEAHLEIREDGTVGGAADQSPESLLQLKALKPGVIQILGVKTSRFLCQRPDGALYGSLHFDPEACSFRELLLEDGYNVYQSEAHGLPLHLPGNHSLHRDPAPRGPARFLPLPGLPPAPPEPPGILAPQPPDVGSSDPLSMVGPSQGRSPSYAS | 0.13 |  |  | 
11 | FGF21 D155E (SEQ ID NO: 128), Q9NSA1 29-209 (ligand) GHPIPDSSPLLQFGGQVRQRYLYTDDAQQTEAHLEIREDGTVGGAADQSPESLLQLKALKPGVIQILGVKTSRFLCQRPDGALYGSLHFDPEACSFRELLLEDGYNVYQSEAHGLPLHLPGNKSPHREPAPRGPARFLPLPGLPPAPPEPPGILAPQPPDVGSSDPLSMVGPSQGRSPSYAS | 0.13 |  |  | 
12 | FGF21 D155N (SEQ ID NO: 129), Q9NSA1 29-209 (ligand) GHPIPDSSPLLQFGGQVRQRYLYTDDAQQTEAHLEIREDGTVGGAADQSPESLLQLKALKPGVIQILGVKTSRFLCQRPDGALYGSLHFDPEACSFRELLLEDGYNVYQSEAHGLPLHLPGNKSPHRNPAPRGPARFLPLPGLPPAPPEPPGILAPQPPDVGSSDPLSMVGPSQGRSPSYAS | 0.06 |  |  | 
13 | FGF21 H153Y, R154K, D155N, P156K, A157G (SEQ ID NO: 134), Q9NSA1 29-209 (ligand) GHPIPDSSPLLQFGGQVRQRYLYTDDAQQTEAHLEIREDGTVGGAADQSPESLLQLKALKPGVIQILGVKTSRFLCQRPDGALYGSLHFDPEACSFRELLLEDGYNVYQSEAHGLPLHLPGNKSPYKNKGPRGPARFLPLPGLPPAPPEPPGILAPQPPDVGSSDPLSMVGPSQGRSPSYAS | 0.05 |  |  | 
14 | FGF21 D155K (SEQ ID NO: 125), Q9NSA1 29-209 (ligand) GHPIPDSSPLLQFGGQVRQRYLYTDDAQQTEAHLEIREDGTVGGAADQSPESLLQLKALKPGVIQILGVKTSRFLCQRPDGALYGSLHFDPEACSFRELLLEDGYNVYQSEAHGLPLHLPGNKSPHRKPAPRGPARFLPLPGLPPAPPEPPGILAPQPPDVGSSDPLSMVGPSQGRSPSYAS | 0.06 |  |  | 
15 | FGF21 R159H (SEQ ID NO: 152), Q9NSA1 29-209 (ligand) GHPIPDSSPLLQFGGQVRQRYLYTDDAQQTEAHLEIREDGTVGGAADQSPESLLQLKALKPGVIQILGVKTSRFLCQRPDGALYGSLHFDPEACSFRELLLEDGYNVYQSEAHGLPLHLPGNKSPHRDPAPHGPARFLPLPGLPPAPPEPPGILAPQPPDVGSSDPLSMVGPSQGRSPSYAS | 0.17 |  |  | 
16 | FGF21 P152A, H153K, R154K, D155E, P156A, A157S, R159Q (SEQ ID NO: 133), Q9NSA1 29-209 (ligand) GHPIPDSSPLLQFGGQVRQRYLYTDDAQQTEAHLEIREDGTVGGAADQSPESLLQLKALKPGVIQILGVKTSRFLCQRPDGALYGSLHFDPEACSFRELLLEDGYNVYQSEAHGLPLHLPGNKSAKKEASPQGPARFLPLPGLPPAPPEPPGILAPQPPDVGSSDPLSMVGPSQGRSPSYAS | 0.24 |  |  | 
17 | G-FGF21 (SEQ ID NO: 3), without N-terminal tag, Q9NSA1 29-209 (ligand) GHPIPDSSPLLQFGGQVRQRYLYTDDAQQTEAHLEIREDGTVGGAADQSPESLLQLKALKPGVIQILGVKTSRFLCQRPDGALYGSLHFDPEACSFRELLLEDGYNVYQSEAHGLPLHLPGNKSPHRDPAPRGPARFLPLPGLPPAPPEPPGILAPQPPDVGSSDPLSMVGPSQGRSPSYAS | 0.24 |  |  | 
18 | FGF21 G202T (SEQ ID NO: 154), Q9NSA1 29-209 (ligand) GHPIPDSSPLLQFGGQVRQRYLYTDDAQQTEAHLEIREDGTVGGAADQSPESLLQLKALKPGVIQILGVKTSRFLCQRPDGALYGSLHFDPEACSFRELLLEDGYNVYQSEAHGLPLHLPGNKSPHRDPAPRGPARFLPLPGLPPAPPEPPGILAPQPPDVGSSDPLSMVGPSQTRSPSYAS | 0.01 |  |  | 
19 | FGF21 K150H (SEQ ID NO: 139), Q9NSA1 29-209 (ligand) GHPIPDSSPLLQFGGQVRQRYLYTDDAQQTEAHLEIREDGTVGGAADQSPESLLQLKALKPGVIQILGVKTSRFLCQRPDGALYGSLHFDPEACSFRELLLEDGYNVYQSEAHGLPLHLPGNHSPHRDPAPRGPARFLPLPGLPPAPPEPPGILAPQPPDVGSSDPLSMVGPSQGRSPSYAS | 0.15 |  |  | 
20 | FGF21 H153Q, R154Q, D155N, A157V, R159K (SEQ ID NO: 132), Q9NSA1 29-209 (ligand) GHPIPDSSPLLQFGGQVRQRYLYTDDAQQTEAHLEIREDGTVGGAADQSPESLLQLKALKPGVIQILGVKTSRFLCQRPDGALYGSLHFDPEACSFRELLLEDGYNVYQSEAHGLPLHLPGNKSPQQNPVPKGPARFLPLPGLPPAPPEPPGILAPQPPDVGSSDPLSMVGPSQGRSPSYAS | 0.23 |  |  | 
21 | FGF21 S200M (SEQ ID NO: 153), Q9NSA1 29-209 (ligand) GHPIPDSSPLLQFGGQVRQRYLYTDDAQQTEAHLEIREDGTVGGAADQSPESLLQLKALKPGVIQILGVKTSRFLCQRPDGALYGSLHFDPEACSFRELLLEDGYNVYQSEAHGLPLHLPGNKSPHRDPAPRGPARFLPLPGLPPAPPEPPGILAPQPPDVGSSDPLSMVGPMQGRSPSYAS | 0.17 |  |  | 
22 | G-FGF21 with a leucine in position 174 (SEQ ID NO: 174), Q9NSA1 29-209 (ligand) GHPIPDSSPLLQFGGQVRQRYLYTDDAQQTEAHLEIREDGTVGGAADQSPESLLQLKALKPGVIQILGVKTSRFLCQRPDGALYGSLHFDPEACSFRELLLEDGYNVYQSEAHGLPLHLPGNKSPHRDPAPRGPARFLPLPGLPPALPEPPGILAPQPPDVGSSDPLSMVGPSQGRSPSYAS |  |  |  | 0.21
23 | FGF21 D155Y (SEQ ID NO: 126), Q9NSA1 29-209 (ligand) GHPIPDSSPLLQFGGQVRQRYLYTDDAQQTEAHLEIREDGTVGGAADQSPESLLQLKALKPGVIQILGVKTSRFLCQRPDGALYGSLHFDPEACSFRELLLEDGYNVYQSEAHGLPLHLPGNKSPHRYPAPRGPARFLPLPGLPPAPPEPPGILAPQPPDVGSSDPLSMVGPSQGRSPSYAS | 0.07 |  |  | 
24 | FGF21 R159-R163 deleted and replaced by HE (SEQ ID NO: 150), Q9NSA1 29-209 (ligand) GHPIPDSSPLLQFGGQVRQRYLYTDDAQQTEAHLEIREDGTVGGAADQSPESLLQLKALKPGVIQILGVKTSRFLCQRPDGALYGSLHFDPEACSFRELLLEDGYNVYQSEAHGLPLHLPGNKSPHRDPAPHEFLPLPGLPPAPPEPPGILAPQPPDVGSSDPLSMVGPSQGRSPSYAS | 0.98 |  |  | 
25 | FGF21 N149-A162 deleted and replaced by GSHSG (SEQ ID NO: 137), Q9NSA1 29-209 (ligand) GHPIPDSSPLLQFGGQVRQRYLYTDDAQQTEAHLEIREDGTVGGAADQSPESLLQLKALKPGVIQILGVKTSRFLCQRPDGALYGSLHFDPEACSFRELLLEDGYNVYQSEAHGLPLHLPGGSHSGRFLPLPGLPPAPPEPPGILAPQPPDVGSSDPLSMVGPSQGRSPSYAS | 0.57 |  |  | 
26 | FGF21 N149-R163 deleted and replaced by GSGS (SEQ ID NO: 136), Q9NSA1 29-209 (ligand) GHPIPDSSPLLQFGGQVRQRYLYTDDAQQTEAHLEIREDGTVGGAADQSPESLLQLKALKPGVIQILGVKTSRFLCQRPDGALYGSLHFDPEACSFRELLLEDGYNVYQSEAHGLPLHLPGGSGSFLPLPGLPPAPPEPPGILAPQPPDVGSSDPLSMVGPSQGRSPSYAS | 3.69 |  |  | 
